Data on eight variants can be found in FireProtDB (doi:10.1021/bi0015717).

As usually defined, the Tm is the temperature at the midpoint of the melting transition.

B1: Lysozyme C, P61626 (parent)
chain: MKALIVLGLVLLSVTVQGKVFERCELARTLKRLGMDGYRGISLANWMCLAKWESGYNTRATNYNAGDRSTDYGIFQINSRYWCNDGKTPGAVNACHLSCSALLQDNIADAVACAKRVVRDPQGIRAWVAWRNRCQNRDVRQYVQGCGV

“And” between values parts separate entries of the source, which are not always exact repeats. Equal values may be shown once.

In one data set the parent is B1. The note with it: Homo sapiens; pH 2.68; Thermal; DSC; glycine-HCl 0.05 M; reversible: yes; structure 1LZ1; whole UniProt chain shown.
As to V92F, the Tm came out at 63.6 °C and the “unfolding enthalpy (calorimetric)” value was found to be 108 kcal/mol.
As for V20F, the Tm amounted to 62 °C and the “unfolding enthalpy (calorimetric)” value worked out at 106 kcal/mol.

Staying with this data set, now noted: Homo sapiens; pH 2.7; 64.9 °C; Thermal; DSC; glycine-HCl 0.05 M; reversible: yes; structure 1LZ1; whole UniProt chain shown.
For the variant V92F, the “ddG of mutation (higher = less stable)” value is 0.29 kcal/mol.
On the same count and under the same terms, next, V92I: -0.45 kcal/mol.
With V20G, the “ddG of mutation (higher = less stable)” value amounted to 2.29 kcal/mol.
The same measure, in the same setting: next, V20L: 0.05 kcal/mol.
Still for that read-out and setting: next, V20F: 0.86 kcal/mol.
Still for that read-out and setting: the result for V128G reads -0.48 kcal/mol; that for V128F, 0.05 kcal/mol.
Take V128I: the “ddG of mutation (higher = less stable)” value is -0.86 kcal/mol.

Staying with this data set, now noted: Homo sapiens; pH 2.7; Thermal; DSC; glycine-HCl 0.05 M; reversible: yes; structure 1LZ1; whole UniProt chain shown.
With V92F, the Tm was 64 °C and 64.9 °C; the “change of melting temperature, mutant - wild type (higher = more stable)” value (“change of melting temperature, mutant” below) is -0.9 °C; the “heat capacity change of unfolding” value came out at 1.34 kcal/mol/K; the “unfolding enthalpy (calorimetric)” value worked out at 110 kcal/mol.
Turning to V92I, the midpoint of thermal melting (Tm) was 66.6 °C and 64.9 °C; the “change of melting temperature, mutant” value was 1.7 °C; the “heat capacity change of unfolding” value amounted to 1.2 kcal/mol/K; the “unfolding enthalpy (calorimetric)” value turned out to be 88.4 kcal/mol.
With V20G, the “change of melting temperature, mutant” value was -7.5 °C; the “heat capacity change of unfolding” value was determined as 1.31 kcal/mol/K; the “unfolding enthalpy (calorimetric)” value was 107 kcal/mol.
Regarding V20L, the Tm was 64.5 °C and 64.7 °C and 64.9 °C; the “change of melting temperature, mutant” value was -0.2 °C; the “heat capacity change of unfolding” value was found to be 1.22 kcal/mol/K; the “unfolding enthalpy (calorimetric)” value amounted to 109 kcal/mol.
In the case of V20F, the Tm was 62.2 °C and 64.9 °C; the “change of melting temperature, mutant” value was -2.7 °C; the “heat capacity change of unfolding” value was 1.63 kcal/mol/K; the “unfolding enthalpy (calorimetric)” value was 110 kcal/mol.
As for V128G, the Tm was 66.5 °C and 64.9 °C; the “change of melting temperature, mutant” value came to 1.6 °C; the “heat capacity change of unfolding” value stood at 1.82 kcal/mol/K; the “unfolding enthalpy (calorimetric)” value came to 99.9 kcal/mol.
Consider V128F, for which the melting temperature (Tm) was 64.7 °C and 64.9 °C; the “change of melting temperature, mutant” value was -0.2 °C; the “heat capacity change of unfolding” value was 1.7 kcal/mol/K; the “unfolding enthalpy (calorimetric)” value is 101 kcal/mol.
For V128I, the melting temperature (Tm) is 67.3 °C and 67.6 °C and 64.9 °C; the “change of melting temperature, mutant” value stood at 2.7 °C; the “heat capacity change of unfolding” value is 1.65 kcal/mol/K; the “unfolding enthalpy (calorimetric)” value is 111 kcal/mol and 107 kcal/mol.

The same data set, now with this note: Homo sapiens; pH 2.84; Thermal; DSC; glycine-HCl 0.05 M; reversible: yes; structure 1LZ1; whole UniProt chain shown.
For V92F, the melting temperature (Tm) came out at 66.3 °C and the “unfolding enthalpy (calorimetric)” value amounted to 112 kcal/mol.

The same data set, now with this note: Homo sapiens; pH 3.1; Thermal; DSC; glycine-HCl 0.05 M; reversible: yes; structure 1LZ1; whole UniProt chain shown.
On to V92F, for which the melting temperature (Tm) was determined as 70.5 °C and the “unfolding enthalpy (calorimetric)” value stood at 117 kcal/mol.

The data set is the same for the next values; noted with them: Homo sapiens; pH 3.23; Thermal; DSC; glycine-HCl 0.05 M; reversible: yes; structure 1LZ1; whole UniProt chain shown.
Consider V92F, for which the Tm is 72.4 °C and the “unfolding enthalpy (calorimetric)” value amounted to 120 kcal/mol.
For V128I, the melting temperature (Tm) is 76.8 °C and the “unfolding enthalpy (calorimetric)” value turned out to be 127 kcal/mol.

Still in this data set, the particulars now being: Homo sapiens; pH 3.4; Thermal; DSC; glycine-HCl 0.05 M; reversible: yes; structure 1LZ1; whole UniProt chain shown.
V92F: the Tm worked out at 75.6 °C and the “unfolding enthalpy (calorimetric)” value came out at 124 kcal/mol.
In the case of V20G, the melting temperature (Tm) was determined as 69 °C and the “unfolding enthalpy (calorimetric)” value was determined as 112 kcal/mol.

Staying with this data set, now noted: Homo sapiens; pH 2.67; Thermal; DSC; glycine-HCl 0.05 M; reversible: yes; structure 1LZ1; whole UniProt chain shown.
Turning to V92I, the melting temperature (Tm) was 66.1 °C and the “unfolding enthalpy (calorimetric)” value stood at 89.9 kcal/mol.

The data set is the same for the next values; noted with them: Homo sapiens; pH 2.8; Thermal; DSC; glycine-HCl 0.05 M; reversible: yes; structure 1LZ1; whole UniProt chain shown.
For V92I, the Tm came out at 68.3 °C and the “unfolding enthalpy (calorimetric)” value stood at 92.5 kcal/mol.
For V128F, the Tm worked out at 66.3 °C and the “unfolding enthalpy (calorimetric)” value came out at 103 kcal/mol.

The data set is the same for the next values; noted with them: Homo sapiens; pH 3; Thermal; DSC; glycine-HCl 0.05 M; reversible: yes; structure 1LZ1; whole UniProt chain shown.
Turning to V92I, the midpoint of thermal melting (Tm) is 71.7 °C and the “unfolding enthalpy (calorimetric)” value is 96.6 kcal/mol.

Still in this data set, the particulars now being: Homo sapiens; pH 2.65; Thermal; DSC; glycine-HCl 0.05 M; reversible: yes; structure 1LZ1; whole UniProt chain shown.
V20G: the midpoint of thermal melting (Tm) was found to be 56.6 °C and the “unfolding enthalpy (calorimetric)” value is 95.6 kcal/mol.

Still in this data set, the particulars now being: Homo sapiens; pH 2.83; Thermal; DSC; glycine-HCl 0.05 M; reversible: yes; structure 1LZ1; whole UniProt chain shown.
On to V20G, for which the Tm came out at 59.5 °C and the “unfolding enthalpy (calorimetric)” value was 99.7 kcal/mol.

The same data set, now with this note: Homo sapiens; pH 3.08; Thermal; DSC; glycine-HCl 0.05 M; reversible: yes; structure 1LZ1; whole UniProt chain shown.
Turning to V20G, the midpoint of thermal melting (Tm) was 63.8 °C and the “unfolding enthalpy (calorimetric)” value worked out at 105 kcal/mol.

The data set is the same for the next values; noted with them: Homo sapiens; pH 3.19; Thermal; DSC; glycine-HCl 0.05 M; reversible: yes; structure 1LZ1; whole UniProt chain shown.
For V20G, the Tm is 65.7 °C and the “unfolding enthalpy (calorimetric)” value worked out at 108 kcal/mol.

The data set is the same for the next values; noted with them: Homo sapiens; pH 3.05; Thermal; DSC; glycine-HCl 0.05 M; reversible: yes; structure 1LZ1; whole UniProt chain shown.
For V20L, the Tm is 70.4 °C and the “unfolding enthalpy (calorimetric)” value was determined as 116 kcal/mol.

Staying with this data set, now noted: Homo sapiens; pH 2.87; Thermal; DSC; glycine-HCl 0.05 M; reversible: yes; structure 1LZ1; whole UniProt chain shown.
As for V20F, the midpoint of thermal melting (Tm) is 65 °C and the “unfolding enthalpy (calorimetric)” value turned out to be 110 kcal/mol.

The data set is the same for the next values; noted with them: Homo sapiens; pH 3.09; Thermal; DSC; glycine-HCl 0.05 M; reversible: yes; structure 1LZ1; whole UniProt chain shown.
Turning to V20F, the Tm amounted to 68.6 °C and the “unfolding enthalpy (calorimetric)” value came to 116 kcal/mol.

Staying with this data set, now noted: Homo sapiens; pH 3.22; Thermal; DSC; glycine-HCl 0.05 M; reversible: yes; structure 1LZ1; whole UniProt chain shown.
For the variant V20F, the midpoint of thermal melting (Tm) was found to be 71.2 °C and the “unfolding enthalpy (calorimetric)” value is 121 kcal/mol.

The data set is the same for the next values; noted with them: Homo sapiens; pH 2.6; Thermal; DSC; glycine-HCl 0.05 M; reversible: yes; structure 1LZ1; whole UniProt chain shown.
On to V128G, for which the midpoint of thermal melting (Tm) came out at 64.6 °C and the “unfolding enthalpy (calorimetric)” value came out at 99.9 kcal/mol.

Staying with this data set, now noted: Homo sapiens; pH 2.94; Thermal; DSC; glycine-HCl 0.05 M; reversible: yes; structure 1LZ1; whole UniProt chain shown.
With V128G, the Tm came out at 70.6 °C and the “unfolding enthalpy (calorimetric)” value was 110 kcal/mol.

The same data set, now with this note: Homo sapiens; pH 3.11; Thermal; DSC; glycine-HCl 0.05 M; reversible: yes; structure 1LZ1; whole UniProt chain shown.
On to V128G, for which the Tm was 73.4 °C and the “unfolding enthalpy (calorimetric)” value is 115 kcal/mol.

Staying with this data set, now noted: Homo sapiens; pH 3.3; Thermal; DSC; glycine-HCl 0.05 M; reversible: yes; structure 1LZ1; whole UniProt chain shown.
Consider V128G, for which the midpoint of thermal melting (Tm) worked out at 76.6 °C and the “unfolding enthalpy (calorimetric)” value amounted to 122 kcal/mol.

Still in this data set, the particulars now being: Homo sapiens; pH 2.72; Thermal; DSC; glycine-HCl 0.05 M; reversible: yes; structure 1LZ1; whole UniProt chain shown.
For V128F, the midpoint of thermal melting (Tm) worked out at 65.1 °C and the “unfolding enthalpy (calorimetric)” value came to 101 kcal/mol.

Staying with this data set, now noted: Homo sapiens; pH 3.04; Thermal; DSC; glycine-HCl 0.05 M; reversible: yes; structure 1LZ1; whole UniProt chain shown.
In the case of V128F, the Tm was 70.5 °C and the “unfolding enthalpy (calorimetric)” value came to 110 kcal/mol.

The data set is the same for the next values; noted with them: Homo sapiens; pH 2.53; Thermal; DSC; glycine-HCl 0.05 M; reversible: yes; structure 1LZ1; whole UniProt chain shown.
For V128I, the melting temperature (Tm) is 64.9 °C and the “unfolding enthalpy (calorimetric)” value is 107 kcal/mol.

The same data set, now with this note: Homo sapiens; pH 2.9; Thermal; DSC; glycine-HCl 0.05 M; reversible: yes; structure 1LZ1; whole UniProt chain shown.
Turning to V128I, the midpoint of thermal melting (Tm) worked out at 70.9 °C and the “unfolding enthalpy (calorimetric)” value is 117 kcal/mol.

Still in this data set, the particulars now being: Homo sapiens; pH 3.13; Thermal; DSC; glycine-HCl 0.05 M; reversible: yes; structure 1LZ1; whole UniProt chain shown.
On to V128I, for which the Tm was found to be 74.9 °C and the “unfolding enthalpy (calorimetric)” value worked out at 123 kcal/mol.
